Assay results reported in patent US20240002531A1 (ONO PHARMACEUTICAL, published 2024).
Read-outs that look alike come from different tables or passages of the source.

Legend:
Assay in all cases: peptide ELISA, OD 655 nm
[1] = target: T1, HER2 peptide p603-622 (amino acids 603 to 622 of human HER2) (human)
T1 construct: Synthetic peptide; also called wild-type HER2 peptide
T1 peptide: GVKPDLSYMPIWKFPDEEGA

[2] = target: T2, G603A peptide (HER2 603-622 with G603A) (human)
T2 peptide: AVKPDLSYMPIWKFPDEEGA

[3] = target: T3, V604A peptide (HER2 603-622 with V604A) (human)
T3 peptide: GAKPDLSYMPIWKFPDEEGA

[4] = target: T4, K605A peptide (HER2 603-622 with K605A) (human)
T4 peptide: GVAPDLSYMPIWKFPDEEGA

[5] = target: T5, P606A peptide (HER2 603-622 with P606A) (human)
T5 peptide: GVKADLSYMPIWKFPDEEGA

[6] = target: T6, D607A peptide (HER2 603-622 with D607A) (human)
T6 peptide: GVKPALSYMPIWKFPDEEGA

[7] = target: T7, L608A peptide (HER2 603-622 with L608A) (human)
T7 peptide: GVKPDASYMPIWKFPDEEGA

[8] = target: T8, S609A peptide (HER2 603-622 with S609A) (human)
T8 peptide: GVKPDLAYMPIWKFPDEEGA

[9] = target: T9, Y610A peptide (HER2 603-622 with Y610A) (human)
T9 peptide: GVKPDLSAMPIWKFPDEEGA

[10] = target: T10, M611A peptide (HER2 603-622 with M611A) (human)
T10 peptide: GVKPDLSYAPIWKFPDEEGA

[11] = target: T11, P612A peptide (HER2 603-622 with P612A) (human)
T11 peptide: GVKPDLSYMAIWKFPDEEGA

[12] = target: T12, I613A peptide (HER2 603-622 with I613A) (human)
T12 construct: also called 1613A
T12 peptide: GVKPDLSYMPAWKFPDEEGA

[13] = target: T13, W614A peptide (HER2 603-622 with W614A) (human)
T13 peptide: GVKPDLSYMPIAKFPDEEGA

[14] = target: T14, K615A peptide (HER2 603-622 with K615A) (human)
T14 peptide: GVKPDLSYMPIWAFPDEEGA

[15] = target: T15, F616A peptide (HER2 603-622 with F616A) (human)
T15 peptide: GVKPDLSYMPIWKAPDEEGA

[16] = target: T16, P617A peptide (HER2 603-622 with P617A) (human)
T16 peptide: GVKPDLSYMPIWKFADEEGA

[17] = target: T17, D618A peptide (HER2 603-622 with D618A) (human)
T17 peptide: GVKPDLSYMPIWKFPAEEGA

[18] = target: T18, E619A peptide (HER2 603-622 with E619A) (human)
T18 peptide: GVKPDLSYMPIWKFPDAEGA

[19] = target: T19, E620A peptide (HER2 603-622 with E620A) (human)
T19 peptide: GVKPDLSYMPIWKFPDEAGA

[20] = target: T20, G621A peptide (HER2 603-622 with G621A) (human)
T20 peptide: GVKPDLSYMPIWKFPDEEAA

[21] = target: T21, HER2_604-622C peptide (NH2-VKPDLSYMPIWKFPDEEGAC-COOH) (human)
T21 construct: KLH was added for immunisation, the peptide itself was coated in the screening ELISA
T21 peptide: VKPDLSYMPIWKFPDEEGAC

[22] = target: T1, HER2 peptide p603-622 (amino acids 603 …)
[23] = target: T2, G603A peptide (HER2 603-622 with G603A)
[24] = target: T3, V604A peptide (HER2 603-622 with V604A)
[25] = target: T4, K605A peptide (HER2 603-622 with K605A)
[26] = target: T5, P606A peptide (HER2 603-622 with P606A)
[27] = target: T6, D607A peptide (HER2 603-622 with D607A)
[28] = target: T7, L608A peptide (HER2 603-622 with L608A)
[29] = target: T8, S609A peptide (HER2 603-622 with S609A)
[30] = target: T9, Y610A peptide (HER2 603-622 with Y610A)
[31] = target: T10, M611A peptide (HER2 603-622 with M611A)
[32] = target: T11, P612A peptide (HER2 603-622 with P612A)
[33] = target: T12, I613A peptide (HER2 603-622 with I613A)
[34] = target: T13, W614A peptide (HER2 603-622 with W614A)
[35] = target: T14, K615A peptide (HER2 603-622 with K615A)
[36] = target: T15, F616A peptide (HER2 603-622 with F616A)
[37] = target: T16, P617A peptide (HER2 603-622 with P617A)
[38] = target: T17, D618A peptide (HER2 603-622 with D618A)
[39] = target: T18, E619A peptide (HER2 603-622 with E619A)
[40] = target: T19, E620A peptide (HER2 603-622 with E620A)
[41] = target: T20, G621A peptide (HER2 603-622 with G621A)
[42] = target: T21, HER2_604-622C peptide …

B1: H2Mab-279 antibody (antibody, mouse IgG3, V domains shown)
VH: EVQLVESGGGLVQPGGSLKLSCAASGFSFSSYGIFWVRQTPDKRLELVATIKSNGGRTYYPDSVKGRFTISRDNAKNTLHLQMSSLKSEDTAMYYCAREGGDYWGQGTSVTVSS
VL: DIVMTQSHKIMSTSVGDRVSISCKASQDVGTAVAWYQQKPGQSPILLIYWASTRHTGVPDRFTGSGSGTDFTLTISNVQSEDLADYFCQQYKSNPLTFGAGTKLELKR
binding result [1]: binds
binding result [2]: binds
binding result [3]: binds
binding result [4]: binds
binding result [5]: binds
binding result [6]: binds
binding result [7]: binds
binding result [8]: binds
binding result [9]: binds
binding result [10]: binds
binding result [11]: binds
binding result [12]: binds
binding result [13]: binds
binding result [14]: binds
binding result [15]: binds
binding result [16]: binds
binding result [17]: binds
binding result [18]: binds
binding result [19]: binds
binding result [20]: binds
binding result [21]: binds

B2: H2Mab-280 antibody (antibody, mouse IgG1, kappa, V domains shown)
VH: DVKLVESGGGLVKPGGSLKLSCAASGFTFSSYSMSWVRQTPEKRLEWVAIISSGGSYTFYPDSVKGRFTISRDNAKNTLYLQMSSLKSEDTAMYHCTREAGDYWGQGTTLTVSS
VL: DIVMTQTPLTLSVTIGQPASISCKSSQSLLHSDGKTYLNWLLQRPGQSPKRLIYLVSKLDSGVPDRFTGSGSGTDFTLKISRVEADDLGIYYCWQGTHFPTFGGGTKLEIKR
binding result [1]: binds
binding result [2]: binds
binding result [3]: binds
binding result [4]: binds
binding result [5]: binds
binding result [6]: binds
binding result [7]: binds
binding result [8]: binds
binding result [9]: binds
binding result [10]: binds
binding result [11]: binds
binding result [12]: binds
binding result [13]: no binding (tested: 10 ug/ml)
binding result [14]: binds
binding result [15]: binds
binding result [16]: binds
binding result [17]: binds
binding result [18]: binds
binding result [19]: binds
binding result [20]: binds
binding result [21]: binds

B3: H2Mab-282 antibody (antibody, mouse IgG2a, kappa, V domains shown)
VH: QVQLQQSGAELSRPGASVKMSCKAAGYTFSSYMIHWVKQRPGQGLEWIGYINPSSGYSNYNQKFKDKATLTADKSSSTAYMQLSSLTSEDSAVYYCAFYDYDGDWGQGTLVTVSA
VL: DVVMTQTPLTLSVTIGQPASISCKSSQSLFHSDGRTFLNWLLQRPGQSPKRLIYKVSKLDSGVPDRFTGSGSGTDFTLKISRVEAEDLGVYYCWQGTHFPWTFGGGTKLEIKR
binding result [1]: binds
binding result [2]: binds
binding result [3]: binds
binding result [4]: binds
binding result [5]: binds
binding result [6]: binds
binding result [7]: binds
binding result [8]: binds
binding result [9]: binds
binding result [10]: binds
binding result [11]: binds
binding result [12]: binds
binding result [13]: binds
binding result [14]: binds
binding result [15]: no binding (tested: 10 ug/ml)
binding result [16]: binds
binding result [17]: binds
binding result [18]: binds
binding result [19]: binds
binding result [20]: binds
binding result [21]: binds

B4: H2Mab-283 antibody (antibody, mouse IgG1, kappa, V domains shown)
VH: EVQLVESGGGLVQPGGSLKLSCAASGFTFSSYGMSWVRQTPDKRLELVATINSNGGSTFYPDSVKGRFTISRDNAKNTLYLHMSSLKSEDTAIYYCVSPGSWFPYWGRGTLVTVSA
VL: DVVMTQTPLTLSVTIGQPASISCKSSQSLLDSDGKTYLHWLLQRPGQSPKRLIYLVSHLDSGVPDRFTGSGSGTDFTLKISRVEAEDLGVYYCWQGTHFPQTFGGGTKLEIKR
binding result [22]: binds
binding result [23]: binds
binding result [24]: binds
binding result [25]: binds
binding result [26]: binds
binding result [27]: binds
binding result [28]: binds
binding result [29]: binds
binding result [30]: binds
binding result [31]: binds
binding result [32]: binds
binding result [33]: binds
binding result [34]: no binding (tested: 10 ug/ml)
binding result [35]: binds
binding result [36]: binds
binding result [37]: binds
binding result [38]: binds
binding result [39]: binds
binding result [40]: binds
binding result [41]: binds
binding result [42]: binds
